Results reported in a protein production outcome set (Wang et al. 2014).

Test: label from the status in PepcDB records

Sequence: MGHLSAPLHRVRVPWQGLLLTASLLTFWNPPTTAQLTTESMPFNVAEGKEVLLLVHNLPQQLFGYSWYKGERVDGNRQIVGYAIGTQQATPGPANSGRETIYPNASLLIQNVTQNDTGFYTLQVIKSDLVNEEATGQFHVYPELPKPSISSNNSNPVEDKDAVAFTCEPETQDTTYLWWINNQSLPVSPRLQLSNGNRTLTLLSVTRNDTGPYECEIQNPVSANRSDPVTLNVTYGPDTPTISPSDTYYRPGANLSLSCYAASNPPAQYSWLINGTFQQSTQELFIPNITVNNSGSYTCHANNSVTGCNRTTVKTIIVTELSPVVAKPQIKASKTTVTGDKDSVNLTCSTNDTGISIRWFFKNQSLPSSERMKLSQGNTTLSINPVKREDAGTYWCEVFNPISKNQSDPIMLNVNYNALPQENGLSPGAIAGIVIGVVALVALIAVALACFLHFGKTGRASDQRDLTEHKPSVSNHTQDHSNDPPNKMNEVTYSTLNFEAQQPTQPTSASPSLTATEIIYSEVKKQ
- protein production: failed

Sequence: MPELPWVEKYRPKKLSEIVNQEEAIEKVRAWIESWLHGHPPKKKALLLAGPPGSGKTTTVYALANEYNFEVIELNASDERTYEKISRYVQAAYTMDILGKRRKIIFLDEADNIEPSGAKEIAKLIDKAKNPIIMAANKYWEVPKEIREKAELVEYKRLTQRDVMNALIRILKREGITVPKEILLEIAKRSSGDLRAAINDLQTVVVGGYEDATQVLAYRDVEKTVFQALGLVFGSDNAKRAKMAMWNLDMSPDEFLLWVDENIPHLYLNPEEIAQAYDAISRADIYLGRAARTGNYSLWKYAIDMMTAGVAVAGRKRRGFVKFYPPNTLKILAESKEEREIRESIIKKIIREMHMSRLQAIETMKIIREIFENNLDLAAHFTVFLGLSEKEVEFLAGKEKAGTIWGKALALRRKLKELGIREEEKPKVEIEEEEEEEEKTEEEKEEIEEKPEEEKEEEKKEKEKPKKGKQATLFDFLKK
- protein production: failed

Sequence: MPSRRRFVLALAAALPAAGLLSACGFHLRGNNDFAFKRLYINLPQNSQMRAQLRRLIDNGSDTVVVSDKQDADAFLDVLSENRVKTISSLTPQGVVREYRITYRFSFQLRDAHDNLLIPPSEITLFRDLSYNETQVLAKDYEEAALYRDMQGDIVNQLVRRLASVRLPSLEHHHHHH
- protein production: failed

Sequence: AADGEGRGELSPKIKAGDLESKLIVPKNNGLKITGTFLDEISHDIPHQNWGEKEWDLDFQHMKRIGIDTVIMIRSGYRKFMTYPSPYLLKKGCYMPSVDLVDMYLRLAEKYNMKFYFGLYDSGRYWDTGDLSWEIEDNKYVIDEVWKMYGEKYKSFGGWYISGEISRATKGAIDAFRAMGKQCKDISNGLPTFISPWIDGKKAIMGTGKLTREDAVSVQQHEKEWNEIFDGIHEVVDACAFQDGHIDYDELDAFFTVNKKLADKYGMQCWTNAESFDRDMPIRFLPIKFDKLRMKLEAAKRAGYDKAITFEFSHFMSPQSAYLQAGHLYDRYREYFEIK
- protein production: not failed

Sequence: MDWKVFLLRVAVALVLGALIGAERQLRQRLTGLRTNALVSTGACLFVLMTQGVPGLAGDASRIAAYVVSGIGFLGGGVIMRDGLNVRGLNTAATLWCTAAIGVLCSMGLLLEATLGSLVVLCANILLRDIAQRLNRQDVLPASEAEQRYEVQIVCRAEDEIQVRSLMLHSLGSSDLRLQSLHSEDLDNPAKLEVRAELLGTPEAPAQLERLVSRVSLEKGVSSVRWQVFELAAD
- protein production: failed

Sequence: MKDMQTKIVMIGILLSTGIMLRAQDNGGCEDCPAFNAGGKVEVRGVKERIIGDLSQPVAVRVRTLIQQMTLAEKVAQLVSESDSIPRLNLPAYNYWNECLHGVARAGEVTVFPQAINLASTWDTVLVKRVASAISTEARLKYLEIGKGLTYWSPTINMARDPRWGRNEETYGEDPHLTSRLGVAFVKGLQGDHPTYLKTVATIKHFVANNEENNRFSSSSQIPTKQLYEYYFPAYEACVKEANAQSVMTAYNAFNGVPPSGSHWLLDDVLRKEWGFDGFVVSDCGAIGVMNWQHRVVNSLEEAAALGVNSGCDLECGTTYKEKLVQAVEQGLISEAAIDRALTRVLTARFKLGEFDPMELVPYNHYDKKLLAGKKFAELAYEAAVKSVVLLKNDALLPLNKEKIKSVAVVGPFADYNYLGGYSGQPPYSVSLLKGVKELIGKKGKVTYLNGMGTSADSIAQVVKGADIVLVALGSDEKMARENHDMPSIYLPEEQEKFLKKIYQVNPRIVLVFHTGNPLTSEWADTHILAIMQAWYPGQEAGRALANLLFGNENPSGKLPMTIYKTEEQLPDILDFDMWKGRTYRYMKGEPLYGFGHGLSYTSFEFDNIQGNDTLQPDAILQCSVELSNSGQLAGEEVVQVYVSRENTPVYTYPLKKLVAFKKVKLASGEKKKVDFTIAPRELSVWEDGKWRMLSGKYTLFIGSGQPGLAKGITKGFEVKIR
- protein production: failed

Sequence: MDKKPSILIFIVAYNAESTIENVLMRIPADLLDDFDAEVLVIDDQSSDDTVLRCAETIQSGKIRFKTNVLVNPENQGYGGNQKVGYQYAIEHDFDCVALLHGDGQYAPEYLRDLITPVTKGEAEAVFGSRMMTPFGALKGGMPAYKFVGNKILTLFQNIMLKTSLSEFHSGYRAYSVKALKQIPFHLNTPDFHFDTEIIIQLILWGFRIAERPIPTYYGDEICYVNGLKYALDVVITTTKARMQRLGLFHECKYEVIHPHNSNGYPEAKLSIKSPSGNRILEHHHHHH
- protein production: failed

Sequence: MKSRWIIGRSEYLDLAFHAWKQARQDETVIRIEVPQDSEHEFDLGVLDGLNPTDGAMFVAFDERFGNFKRVELMQAAMERGFKLESYIHSSAAIGTDVVIGLNTFVGAHAVVGHGCKIDYNTVIHAGAHLGTACRIKSSCWIENGVQIGAGVEIGGNSILRTGAIVRGGIKVGRSCELGWPRVYCEDVPAKTYFDARYHNPIHTFGT
- protein production: failed

Sequence: MSVCPTNFDEKVECPFVDRKEFTEAFEKAFNNIDQQNYSILVYYGVAGIGKTSLRKELPALLEKHNESDLHTRVIWTSIDFATEQYKQPYKFLEVLSSQLRQKYNVKFNSFDIALATYWKKINPHNPLVKENYSEGSIVHDILDVCDEFVPANLIPNVYNLTKNLPKHYQKWVLKREEDISGLQNLEPTEIYKRLPVYLAHDLADHLQNTSELAVIFIDTYEALWEKERDKGSFNSRDEWLRKLIEKIQKSCLWVICGKESLRWEEVDEDWKNYLDQRKIGKLPEKDALDLLKQCGITEEDIQNVLIESSEGVPYYLELSIDIYRKIKKKKQPTPENFAKVPEGIFCRFVKYLDREEKETLKVLSVPRYWNRELFKILVEKFNTGYPATSFSELHSFSFMDVDDKGKCSMHQLMRKSLKDYQDQDLKKEVHNFMLDFYSNQLKDIDIKEITPEHEIALTEAFYHAKEALEAEDLLKWFISVSDPFNRAAFWQLITPMYEEMLQILEAKHGPEHKDIVTTLNILDVLYYKMGEYKKALQFSERALAIGETILGVQHPDVATSLDNLAGLYESMGNYKQALQLSERALEIYEKVLGPQHRDVAITLDNLAGLYESMGEYEKALIFYQRTIEIKEKVLGPQHSNFATSLDNLAVLYRQMGEYEKALQLSQRALEIYEKVLGPQHPDIATTLNNIALLYDSMGDYQKTLPLYQRALEINEKVFGPQYLGIATTLNNLAGFYRRVGDYEKALSLSQRSLEIDEKVLGSQHPDVARTLNSLALIYENIGDYEKALAFYQRSLDIREKVLGPQHPDVGRTLNNLARLYEIMGDHEKALTLYQRTIEIKEKALGPQHPDVATILNNLAGLHYRIGEYKKALPLYQRALDIVEKKLGQNQPNSVVIKNNYNRLLSKMSENEKK
- protein production: failed

Sequence: MVVYGADVICASCVNAPTSKDIYDWLQPLLKRKYPNISFKYTYIDITKDNDNLTDHDLQFIERIEQDELFYPLITMNDEYVADGYIQTKQITRFIDQKLVNE
- protein production: not failed

Sequence: MGKRIAFWFEFASTYSYLSAMRIERAAADLGVTIAWEPFLLGPIFAAQGWTSSPFNLFPAKGRYMWRDMERLCARQGLPLTRPDPFPQNGLPAARLAMVAREMGHIAPFVRAVYAAQFGRGLVISDPQVLAECWAEAGLPPEAMEQAKSPEIKAALFAQGERAAALDLFGAPSFVVGEEVFWGDDRLDQALALAAQS
- protein production: not failed

Sequence: MWRSCLRLRDGGRRLLNRPAGGPSASMSPGPTIPSPARAYAPPTERKRFYQNVSITQGEGGFEINLDHRKLKTPQAKLFTVPSEALAIAVATEWDSQQDTIKYYTMHLTTLCNTSLDNPTQRNKDQLIRAAVKFLDTDTICYRVEEPETLVELQRNEWDPIIEWAEKRYGVEISSSTSIMGPSIPAKTREVLVSHLASYNTWALQGIEFVAAQLKSMVLTLGLIDLRLTVEQAVLLSRLEEEYQIQKWGNIEWAHDYELQELRARTAAGTLFIHLCSESTTVKHKLLKE
- protein production: failed

Sequence: MAPQPFDIDTPSLRVFLPAPELATGRAIVACPGGGYGGLAVNHEGYDWAPYFNKQGIALIVLKYRMPHGDRTLPISDAEAAMKMARDSADVWNLNPYDIGIMGSSAGGHLASTIATHTRPELRPNFQILFYPVITMDKSYTHIGSHDNLLGKDAFAELETEFSNEKQVTKETPRAFIAYSDDDKTVPPANGVNYYLGLHKNHVPAVLHIYASGGHGWGIRENFIYLEHHHHHH
- protein production: failed

Sequence: ALGVGRSGAMDQTALSQANRIVGNPDHAAVIEILNGGLKLKVLQSTVVAVTGAASHIGVSYAGQAQVKVPDYSPIALDCGDLLYIDSPHAGLRHYLAIRGGIKTEKILGSASFDTLAELGTPPLKPHDFIYSAELSVGSVLLHEKCAQQLPKIGDVVEVDVILGPRTDWFEPESLTQFFQQQWLVTQESNRIGLRLSAGLPLKRQIHGELASEGTCTGALQIPPNGQPVLFMNDHPLTGGYPVLGAIAIDHLDRVAQIPPGCLIQFRQKSEILDLDKEST
- protein production: failed

Sequence: AYPGFELDIDLALPGRGVTALFGHSGSGKSTCLRCIAGLEKAAEGEVTINGETWQDSRRNLFVAPHRRALGYVFQDANLFRHLTVRRNLAFGLKRIAAAERRVELEQACALLGIEHLLERMPERLSGGEQQRVGIARALLTSPRLLLMDEPLASLDLKRKGEILPYLERLHEELDIPVLYVSHSPDEVARLADHLVLLENGKVRASGPIGETLARVDLPLALDDDAGVVIEGTVSDHDPAYGLLTLVLPGSALQMRVAHAPLAPGKRLRFKVQARDVSLNLRDDAQSSILNRLPVRVLELVDTDTAAHVLVRLDAGGNPLLARITRYSRDQLQLR
- protein production: failed

Sequence: MVLGEFAPWRLWSLAGSAKDWRGSKQPRAMTDLVTNQAWTLIDNGRAADALRLTTGPVALPQASAGLLMAHAAALKALGRTDEALTFNRRAVARAPGDRFSWYNLAATLGDLALDDEAEGAARKTIALGLDVPEVRLVLGKALQGLHRYDEAEATFVRALAARPSDATVHLNLAQLRWMRSGRSDEALAPLDAAIARHPADVTLRTIRSNVLTFAGDHAGADATLEDALTRAPGDLAVRIAAARAAGAVGDRARMLAHAREAARLAPGALESQTVLCEALLAAGQADVAARTAEALVAAAPDDQYALVLRNTAWRITGDAQGDLFRDYAALVRTDRLETPEGWDSLDAFLDALRDRMLELHDLKTHPLNQSLRGGSQVPSLDRSRDPLVQAFFACAHKAVARYIEALGAGEDPIRRRRASDFAFAGGWSVRLRSEGFHADHVHPRGWISSAFYLDLPGRFDDETTRAGWLRFGRPGCLTEPALEAEHFIKPERGTLALFPSCLWHGTQPFTDADHRLTIAFDVVPR
- protein production: failed

Sequence: MAIDAFALILAMLGLGLLFARLRVLPDNSADVLNRIVLYICLPASVLTYVPRLHLDASLGGVIATPWLLTAIIVPLLWGCSRLLRFGRAEYAALLMCVVFTNSSFIGFPMVRALIGDHALPYAVVYDQFGTFVLLSTFGLYVLARYSGDTPPTARLIVMRVLQFPPLWALLFALTLMPGQPPAWIGSGLKNLADAMLPLVMLSVGFSLQLRLPADELKPLAVGLVFKLLLMPVLALPLSWVLGLRGQMLQTNVLESAMPTMITAAALAISHRLAPRLAAAMVGYSILLSLLTLPAWAWLLARLVA
- protein production: failed

Sequence: MGLSAVAVFAISGALDAARQKMDILGFMLIGTATGLGGGTLRDLLLGNVPVFWIREPIWIIVCLVSTAITYFIAPKLASITRALIWMDAVGIALFAVVGTEIALEFGTSPLIAICMGVMTASFGGIARDVLSGSNLTLMNEELYITTTVAGSVMYLWLNTLSLPANYDLIGGFFIAFILRALAIRFHIKLPNHYRKD
- protein production: failed
